The record followed here is article PMC7291142.

pKd: −log10 of the molar value.

This series concerns RSV Gag∆PR (Rous sarcoma virus (Prague C strain)). Briefly: FA salt titration.
In the case of MΨ-∆SL-B, the pKd (usually the Kd on a negative log10 scale, so that one unit is a factor of ten) is 4.02.

MΨ-∆L3: the pKd was 1.51.

With MΨ-A197C, the pKd was 2.01.

Consider MΨ-WT, for which the pKd is 3.64.

On to MΨ-G218C, for which the pKd is 0.15.
